Measured values reported in the DeepSol protein solubility set.

Assay: soluble on expression in E. coli; label from the status in PepcDB or PDB records

Row | Sequence | soluble on expression in E. coli
1 | MFADTCGFMNRSPEHIFGSPEIDYSDVSTGYLEDALIESGERSKRRRLLFEDPSKSFNDDDSQNDWGLHESYSCLNSQFVTPHVNTGERISGVSYCQETISNVYESPDTSVSYDKIYVREKSPTEPSSSNCGNKNKRLITKLVYPFGLVKPGGRENDVTLNDINERILMAPSRPIRHPVGDFASRPCVSGRGPGLSGKAVVALTKIQTQGRGTITIIRTKG | soluble
2 | MGSDKIHHHHHHMIRMNISVRNLKEITDLLSTIVSEAKFKVDENGMSVTAVDPAHVAMIRLEVPKEVFSEFRSDGTEEIALDIDRLKSVIRLANSSENVGITKDKEKLKFDLGNISKSVSLLDPSTIVTPKIPNIASEYYAIIKRSDFERGLRAAEDISDSIRFVLSSEGFRATSHSESEESEMVLPKDMLSDLSCSDTIKSSYPLEYLLKFIKAVSSADSLKISFRDDYPLSIEFYLDQNPSAKIKGLFLLAPRMEQ | not soluble
3 | MYQVIRMYGAMEPWWFLDDWKEDITKVLEFDNYHEALQCYQKEWAKLRRRYSDFNSHGDIMTAFWNKQDQHWCEECGDYVQRYHSLALLTDWQETPSSWFRPTFTKQNDTPFRSKCFIKQKNEQGQNLEHHHHHH | not soluble
4 | SEESVKPVPKHANHRRSSVRSSLYGDVRDLWSTATMSTANVSVSDVCEDFDEEGKSVRNRIRKYSQTISIRDSLNLEPEEIQQQARRELELCHGRSLEHGEDHEESETSLASSTSESLIFSLWKPHRTYWTEQQNRLPLPLMELMETEVLDILKKALITYRSTIGRNHFMTKELQGYIEGIRKRRNKRLYFLDQ | soluble
5 | MSEKLQKVLARAGHGSRREIESIIEAGRVSVDGKIAKLGDRVEVTPGLKIRIDGHLISVRESAEQICRVLAYYKPEGELCTRNDPEGRPTVFDRLPKLRGARWIAVGRLDVNTCGLLLFTTDGELANRLMHPSREVEREYAVRVFGQVDDAKLRDLSRGVQLEDGPAAFKTIKFSGGEGINQWYNVTLTEGRNREVRRLWEAVGVQVSRLIRVRYGDIPLPKGLPRGGWTELDLAQTNYLRELVELPPETSSKVAVEKDRRRMKANQIRRAVKRHSQVSGGRRSGGRNNNG | soluble
6 | MIRRLPMTDSRGMNSDKYGIPNIHIRTTPGPDMDKQTKQTNDSGFNSYSRKYHIPRLWYEPARGIYCSDSVSYSWFIQFLQGGIVHVLCRTSLLSISRILRKRGQKVYFGLRKRHEKLVGFASGHGLCLPGPFQHDPIAPVLLPRFPFVRQGRLVRSVLHTGLFE | not soluble
7 | KGHAWTHSAGEPLRVVAIQGNIAQELKWDPNQVRAQLDLYRDLSLPQQDVDLIVWPETAVPILQDMASGYLGAMGQVADEKNAALITGVPVRERLADGKSRYFNGITVVGEGAGTYLKQKLVPFGEYVPLQDLLRGLIAFFDLPMSDFARGPADQPLLKAKGYQIAPYICYEVVYPEFAAALAAQSQVLLTVSNDTWFGTSIGPLQHLQMAQMRALESGRWMIRATNNGVTGLIDPYGRIVRQIPQFQQGILRGEVIPMQGLTPYLQYR | not soluble
8 | MSLNSSQIQSVNVELFNVPLDEVLNDAKHGDHTHFELILCTITCTDGTQGVGYTYTGGKGGRAIYSLLNDELKPFLMGKDASCINHLWEEMQYHLHYVGRGGLVSFAISAVDIALWDIHCKVLNQPLWKVAGGCSDRVNCYAGGIDLNFSTEKLLGNIQGYLDCGFEAVKIKVGKEDYREDVARVAAVRNLIGPDAIFMVDANYSLTVNKAIKFAQAIEQYDITWFEEPTIPDDFAGFAHIASKINIPLAMGENLHTIYEFNQAISQAKLGFLQPDASNIGGITGWLTVAQMGYANNLPICSHGMHELHVSLMASQPNAGYLEVHSFPIDRYTTHPLKLENGKAVAPSTPGVGVEFKTELLLPYLVKHSEGHHHHHH | soluble
9 | GPGSTGRSQATRTQERQEGRKKDMESKGTPTTRHPHVLTTARRKKETLWHGTPKRQTNPTTAVASKSEVVATSPHDGGSGRLPEDSQEATDEVVTLSSASSPLSRTLDGSCMPFAPPLGSDMAVTVACGPVNRTSLLSTEEKTAHAILGQADAMTDRRRSEEMLYYLEAARALREVTSGVEAREQCLRDEIERQSTLYSAKKLDLAEKQKVYERLHESTLRLTRNVRRIDSENDRIRDRLTKLQMTIEKMESRKLPRHIQQDVDRVVRCESVPSWQGANQRVGGCEAIVPMRSVGSVAKNTLMTELEMYTRKLRSAEVRHDKLIKELQLAVARRKGRAAAYNSFGASLSFSGYSGMGNRDGSFLTDSVGESIAIQQLERMIDDSLIRCK | not soluble
10 | MGSDKIHHHHHHMKNFSLWCDFIENSFLDNEFLNLLSHGINGATSNPAIFKNAILNSPIYKDKILKLKEKKTKDIYEELAISDIQKAADKLAPLFYQKNDGFISIEIDPRLHDNTTLSLGEAKRLYSAIGKENIMIKIPATKASYEVMYELMKNGISVNATLIFSLEQSQKCFEALNAGLVEFRKNNIALKEQNTRTPQAVISIFVSRFDRLLNPKAKEQNRIGILNANLAYNNIYSKNEPNIRALFASTGVKGDDLPKDYYIKELLFENSVNTAPLDAIEAFKGKMHFKKPLMNFEIYTELNQIISQSEREKACNDLLSDGLEQFCIAFEDILKAL | not soluble
11 | MLTEDDIKEIRENREMIEQGRREPVTLYIKGVSEKDPITGEEIQGEPRKENVQLVWKKFTSVEKTKFADLDVKKGEALVTFPLNVDLENIEKIERKGVFYVIELIDERGLGGVNRREVIVKRVI | not soluble
12 | MSLNREAQGSQEGVRIRKARAQDIPIVMEINLESLPENYWYGFYKYILDNWGEAFLVAEVGGEIVGYAMSRVEQTSDPVLLGMKDELEGDKSVIDKILDAIRNQLSEERPVGHLVSIAVRPGFRGRGIGSKLLSATVRVMKNVYRVDAIFLEVRVSNMPAIRLYEKFGFRKVRRIKGYYRDGEDAFVMVKRLLEGHHHHHH | soluble
13 | MGSDKIHHHHHHMNIHVKECGDLEAPLLVFLHGGGVSGWMWSNQVDYFHHYHCIVPDLPHHGLSGRETSFTILNSAEALIRLIEKKAQGRDVIVIGFSLGAQILLQMISINPRLITKAIVNSALVRPIPIPEKLLELSVKSTFPLIKSRWFSRLQAKTLYIDDDLFETYYRESCQMTQDSLTQILKENVSFRLPENVHEISTRILTTVGAKEKRIMKTSATMITHAHPNSTGIIIPSVGHGIPLAKPDQFNQLVDQWLKEERLPHDVGLIEK | not soluble
14 | MYNNSELRKIQQKKLEILIDIAKFCNENKIRYWLDSGTLLGAVRHGGFIPWDDDIDIIIMQEDAKFLKENYKSENFEIVNTDEEGINFYKVISKKEQVQVGDSIAELDIDIFLVTYYPDSLALKFWNSFFHLKKNRIDRFSFSLFFTNILINLKRKLEKTKLFNYKNIEKKISYILDEAKKKNKAMPNIAYTPDCGFYLIIWREEEIFPLKKMKFEGIEFSIPNNYDTYLKKMYYSYMDLPPKEKRVPEHYQDKELKLIIKLEHHHHHH | not soluble
15 | MNEQPNNENITQSASRDLQIIEDDAFSYEGYQVVRGEFFAHTYEPSFTFNANKVSVNTACIKKLPQTDFVQILVNPDEKKLAVRPCQEDEKDSFRWCSATKKRSPRQITCRIFFAKVISLMEWNPSYRYKLLGKLIRSDNELLFVFDLTTPEIYVRAEKEDGKIKTSRTPTYPAEWQNQFGVPVEEHQSNLQINMFDGYAVFGISENTQPSEEAQNTSVPPKEETHYEQSTLFPADPMHLEHHHHHH | soluble
16 | METESWKLLESSIIYYEGNPIGTVAAQDPELAALNYDQCFLRDFVPSAFVFLMDGQTDIVRNFLIETLTLQSHEKEMDCFQPGAGLMPASFKVESDGSKEYLVADFGEKAIARVPPVDSCMWWILLLRAYEKATGDLTLAREPKFQAGIKLILDLCLAHRFSMYPTMLVPDGAFMIDRRMGVYEHPLEIQVLFYAALRAARELLLPDGDGEQYLNKVHGRLGALQYHIRNYYWVDLKRLREIYRYKGNEFGKEIANKFNIFSQSIPDWVIEWLPEKGGYLAGNLGPGRMDFRFFALGNLMAILAGLASEEESQRIMNLFAHRWEDLIGYMPVKICYPALQGLEWQIVTGCDPKNIPWSYHNGGNWPVLLWLFTAAALKTGKVELAHEAIAIAEGRLSNDKFPEYYDGNNGRLIGKEARIYQTWSIAGLLVAKQFLANPDHVEFISFPDTFIGPGCSLLEHHHHHH | soluble
17 | MGSDKIHHHHHHMRYSPEALIAFVETVSCGSFSAAARRLRKSQSTISIAIAHLEADLGFSLFDRSSRQPVLTEEGKRVLSYVQAILSASDRLDEVALTLSGETEARLTFVLSDTLHPDSLEELMAQFDRQFPHTEFECLIGENDDVIDLLQKGRAQIGLIEARDDYPTDIGAARLPVQSWMGVYVATTHPLASQTNLQWEQLHTWRELRLNTYLDSNANITRGPAWSAPNYLLLLSMAVQGFGWCVLPCALVEEFAAEKPLAQLDVPGWPRAIAIDLLWNKKTPPGTAGNWLRYHLQQK | not soluble
18 | SQACVMPSLLQNMVGFSEVARATQTDPRPQRPAPPQPQVATMPWSQPGSWARRGFVPAWSQPPALSQQKLARQCCLGPWAGLIPHQQPLPRHPPQASSFPTTAGLWPPAFAQCGTLGHRAIYLVLWPPFLGPWLSSLQEKPHFIPQLPPACTPHPVPWWGLSIPGSKGRRSAPFLPLSLGRLGAQLWKHHPATHLSCGSRFFGGS | soluble
19 | MSSSRNFDLEYDDYKERRNAAGMGSRASSRNGGRFKPIDKEKEKEKKEIGDYGLPKNEYKMQGYDERSSDVGADPLASVRTLRNNLRVMSLEHRDKDEPVKSHLCQSACDDLSKAEKQLVDLSHKRSDAVVRGDSRQAEQIAKDMDRVKSDAIRNAYSDLMMEDGTMKAFGVNSKWTPDKNPMPSDDWKPMTPMKPRKRAETPKGRKTESRQSNRGNNDNGDQRMTSKATTRSPERRVIPTEPSKPKTTRKNQRLSTIGHVPEAIPVVDTPLPGGSTVQDDPYKMPTYVGRCPHCQLTESGLGRAGGMEKHFAKYCKVMTSCKYCMKLTMVSQLTDHLIYRCEFLQDTMEACNDCGLAIEKEDQKRGGSHPMCRGRRPPTGAQWCPLCTIAVEDNEENWREHLLNNCYNNQRRDGPEKDPWEMKQEQEDILLGAKEKKKREMEEEERLKKEAEIRRQQQQVVVNNTGYPGKMIDADKLVVALQEIQERKKAEKKKKLKDIEKET | not soluble
20 | RRMVALYDYDPRESSPNVDVEAELTFCTGDIITVFGEIDEDGFYYGELNGQKGLVPSNFLEEV | soluble
21 | MEKEAFMEKLLSFMKEEAYKPLTVQELEEMLNITEAEEFKELVKALVALEEKGLIVRTRSDRYGIPEKMNLIKGKISAHAKGFAFLLPEDTSLSDVFIPPNELNTAMNGDIVMVRLNSQSSGSRQEGTVIRILERAIQRVVGTYTETRNFGFVIPDDKKITSDIFIPKNGKNGAAEGHKVVVKLTSYPEGRMNAEGEVETILGHKNDPGIDILSVIHKHGLPGEFPADAMEQASSTPDTIDEKDLKDRRDLRDQVIVTIDGADAKDLDDAVTVTKLDDGSYKLGVHIADVSHYVTENSPIDKEALERGTSVYLVDRVIPMIPHRLSNGICSLNPKVDRLTLSCEMTINSQGQVTEHEIFQSVIKTTERMTYSDVNKILVDDDEELKQKYEPLVPMFKDMERLAQILRDKRMDRGAVDFDFKEAKVLVDDEGAVKDVVIRERSVAEKLIEEFMLVANETVAEHFHWMNVPFIYRIHEEPNAEKLQKFLEFVTTFGYVVKGTAGNIHPRALQSILDAVRDRPEETVISTVMLRSMKQAKYDPQSLGHFGLSTEFYTHFTSPIRRYPDLIVHRLIRTYLINGKVDEATQEKWAERLPDIAEHTSSMERRAVDAERETDDLKKAEYMLDKIGEEFDGMISSVTNFGMFVELPNTIEGLVHVSFMTDDYYRFDEQHFAMIGERTGNVFRIGDEITVKVVDVNKDERNIDFEIVGMKGTPRRPRELDSSRSRKRGKPARKRVQSTNTPVSPAPSEEKGEWFTKPKKKKKKRGFQNAPKQKRKKKKLEHHHHHH | not soluble
22 | SDCLIVVDTRAAIRRVNRAALTMLGYDEEQLLGMPVGVIFAWERDKERLRTEGLRCFVESIGSSPAEFTFLSSDERRTPVLLSASPMLGRD | not soluble
